T1: N-His-tagged p20 subunit of human ICE (human, UniProt P29466 120-297)
T1 construct: Subunit released from N-His p30 by autoprocessing
T1 sequence: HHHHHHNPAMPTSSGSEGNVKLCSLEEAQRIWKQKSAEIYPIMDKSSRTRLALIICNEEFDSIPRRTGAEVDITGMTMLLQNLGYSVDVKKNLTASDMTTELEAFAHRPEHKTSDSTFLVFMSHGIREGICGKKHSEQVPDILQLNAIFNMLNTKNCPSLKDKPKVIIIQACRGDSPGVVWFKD


Target: T1, N-His-tagged p20 subunit of human ICE
Test: co-expression as N-His p30 in E. coli, nickel chelating column purification
From the text: ICE (WT or modified) with an N-terminal polyhistidine tag was expressed in E. coli and purified using methodology described in Kamens et al. (1995) J. Biol. Chem., 270:15250-15256. Briefly, a DNA fragment encoding amino acid residues 120 to 404 of wild-type or D381E-modified ICE (p30) was cloned into an expression vector such that the p30-encoding fragment was fused in-frame at its N-terminus to DNA encoding six histidine residues. Following expression, the p30 fragment is correctly processed to p20 and p10 subunits, which associate to form mature, active N-His-tagged ICE proteins. The N-His ICE fusion proteins then were purified on a nickel chelating column (Porath, J. (1992) Protein Expression and Purification 2:263-281).

| binding result | Binder |
| --- | --- |
| binds | wild-type p10 subunit of human ICE (other, Subunit released from WT N-His p30 by autoprocessing; also called ICE 317-404) AIKKAHIEKDFIAFCSSTPDNVSWRHPTMGSVFIGRLIEHMQEYACSCDVEEIFRKVRFSFEQPDGRAQMPTTERVTLTRCFYLFPGH |
| binds | D381E-modified p10 subunit of human ICE (other, Subunit released from D381E N-His p30 by autoprocessing; also called p10 D381E; ICE 317-404 D381E) AIKKAHIEKDFIAFCSSTPDNVSWRHPTMGSVFIGRLIEHMQEYACSCDVEEIFRKVRFSFEQPEGRAQMPTTERVTLTRCFYLFPGH |

Reference: US20020164762A1 (BASF AKTIENGESELLSCHAFT, published 2002)
